From PMC3162612, “RssAB Signaling Coordinates Early Development of Surface Multicellularity in Serratia marcescens” (PLoS ONE, 2011)

Biological target: T1, GST-tagged non-phosphorylatable variant RssB D51E (Serratia marcescens, UniProt Q8GP20 1-219, D51E)
T1 construct: RssB, response regulator of the RssAB two-component system, Serratia marcescens CH-1, with D51E; plasmid pGST-RssB^D51E (pGEX-2T-rssB D51E); used to mimic unphosphorylated RssB; also called GST-RssB^D51E; source: E. coli BL21(DE3)pLysS, purified
T1 sequence: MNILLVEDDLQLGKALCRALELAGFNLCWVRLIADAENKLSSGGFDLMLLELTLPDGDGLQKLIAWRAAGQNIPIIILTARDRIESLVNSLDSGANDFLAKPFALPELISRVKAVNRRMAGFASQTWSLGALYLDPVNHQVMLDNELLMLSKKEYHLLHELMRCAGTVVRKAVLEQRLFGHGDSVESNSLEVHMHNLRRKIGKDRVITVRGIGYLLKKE
Assay: pull-down; GST, GST-RssB or GST-RssB D51E pretreated with acetyl-phosphate, incubated with His-cRssA and glutathione sepharose-4B in interaction buffer (20 mM Tris-HCl pH 7.5, 10 mM MgCl2, 100 mM KCl), 4°C 1 hr; washed; SDS-PAGE, Coomassie stain and anti-hexa-histidine blot
Conditions: both partners purified

B1: poly histidine-tagged cytoplasmic region of RssA (domain or fragment)
chain: LRPLRQIARTISDRQPGNLSPINVSEQYQEIRPVVMEVNKLMARIDAANQREKRFMADAAHELRTPIAAVLAQLHLLTQVTEQQERREIIGDMQQGLDRAASLSRQLINLAKLEAEDFPLKIEAVDIYAEIGKCIAQHVPYALEKDVELSLDGSEDVVVSTDRRALIAIFTNLLDNALKYAPPGSRIEANIRSLAPLGCYITLRDNGPGVSEEHRSRLFERFYRVPGTQQTGSGLGLAIARNLADKIGAQLRVTEGLDDRGIGFIIDLPESYRPQTESEPRP
notes: RssA, inner membrane sensor kinase of the RssAB two-component system, Serratia marcescens CH-1; also called His-cRssA; cRssA; source: E. coli BL21(DE3)pLysS, recombinant protein for purification
fold His-cRssA pulled down relative to GST-RssB: ~2 fold
